# In patent publication US20030095977A1 (published 2003):
# T1: CD20 (human, UniProt P11836 1-297)
# T1 construct: whole, on cells; also called CD20 on Ramos cells
# T1 sequence (looked up): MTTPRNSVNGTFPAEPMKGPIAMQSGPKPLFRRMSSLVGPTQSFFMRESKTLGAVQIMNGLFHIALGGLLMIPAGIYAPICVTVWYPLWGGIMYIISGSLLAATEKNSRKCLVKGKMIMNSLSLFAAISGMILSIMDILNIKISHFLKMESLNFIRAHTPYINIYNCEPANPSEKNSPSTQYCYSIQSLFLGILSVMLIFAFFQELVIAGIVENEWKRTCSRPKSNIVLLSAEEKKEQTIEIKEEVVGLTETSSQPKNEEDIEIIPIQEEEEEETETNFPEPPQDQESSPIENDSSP
# B1: B9E9 mAb (murine anti-CD20 antibody B9E9) (antibody, V domains shown)
# VH: QVQLVQSGAELVKPGASVKMSCKASGYTFTSYNMHWVKQTPGQGLEWIGAIYPGNGDTSYNQKFKGKATLTADKSSSTAYMQLSSLTSEDSAVYYCARAQLRPNYWYFDVWGAGTTVTVSS
# VL: DIVLSQSPAILSASPGEKVTMTCRASSSVSYMHWYQQKPGSSPKPWIYATSNLASGVPARFSGSGSGTSYSLTISRVEAEDAATYYCQQWISNPPTFGAGTKLELK
# Target: T1, CD20
# Test: saturation binding of radiolabeled mAb to Ramos cells (10^7 cells), nonlinear regression; avidity
binder,measurement,value
B1,Ka,1.02e+08 M⁻¹
same,Kd,9.75 nM
